Experimental findings from patent publication EP4772193A1 (Teijin Pharma Limited, dated 2026) are described below.

To fix the notation:
T1: recombinant human soluble gpNMB (recombinant human gpNMB-FLAG-His) (human, UniProt Q14956 23-498)
T1 sequence: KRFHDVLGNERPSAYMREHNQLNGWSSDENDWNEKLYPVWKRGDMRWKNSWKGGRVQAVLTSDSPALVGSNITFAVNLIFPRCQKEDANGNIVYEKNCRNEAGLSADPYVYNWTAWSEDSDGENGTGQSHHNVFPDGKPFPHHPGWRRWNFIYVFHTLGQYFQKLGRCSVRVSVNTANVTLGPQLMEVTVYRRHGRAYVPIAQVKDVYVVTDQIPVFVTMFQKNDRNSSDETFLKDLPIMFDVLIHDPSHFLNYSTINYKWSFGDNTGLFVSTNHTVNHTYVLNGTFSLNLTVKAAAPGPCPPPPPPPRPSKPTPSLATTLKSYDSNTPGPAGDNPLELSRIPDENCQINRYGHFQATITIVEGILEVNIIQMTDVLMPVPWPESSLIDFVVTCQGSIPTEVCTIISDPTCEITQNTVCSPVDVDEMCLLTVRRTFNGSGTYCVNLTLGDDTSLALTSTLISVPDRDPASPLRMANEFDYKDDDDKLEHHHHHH

B1: hGPN06-1_H1L1 VH Y27A (antibody, V domains shown)
VH: QVQLVQSGAEVKKPGASVKVSCKASGATFTDNWMGWVKQRPGQGLEWIGAIDPSDSFTNYNQNFKGRVTMTVDTSISTAYMELSRLRSDDSAVYFCTRSGYYGSPKLGGDYWGQGTLVTVSS
VL: EIVLTQSPSSLSASVGDRVTITCSASSSISYMHWYQQKSGTAPKLLIYSTSNLASGVPSRFSGSGSGTDFTFTISSLQPEDAATYYCHQWNSYPCTFGGGTKLEIK
B2: hGPN06-1_H1L1 VH Y60A (antibody, V domains shown)
VH: B1 VH with A27Y, Y60A
VL: B1 VL
B3: hGPN18-2_H2L3 VH D52A (antibody, V domains shown)
VH: QVQLVQSGPGLVQPTQTLTLTCSFSGFSLSTSVMGVGWIRQPSGKGLEWLAAIWWDDDKDYNPSLKSRLTISKDTSKNQVVLTMTNMDTVDTATYYCARTYYSNYEYYGMDYWGQGTLVTVSS
VL: DIVMTQSPDSLAVSLGERATINCRSSQTIILSNGNTYLEWYQQKPGQPPKLLIYKVSNRFSGVPDRFSGSGSGTDFTLTISSLQAEDVAVYYCFQGSHVPFTFGSGTKLEIKR
B4: hGPN18-2_H2L3 VH D60A (antibody, V domains shown)
VH: B3 VH with A52D, D60A
VL: B3 VL
B5: hGPN18-2_H2L3 VH D58A (antibody, V domains shown)
VH: B3 VH with A52D, D58A
VL: B3 VL
B6: hGPN18-2_H2L3 VH G26A (antibody, V domains shown)
VH: B3 VH with G26A, A52D
VL: B3 VL
B7: hGPN18-2_H2L3 VH D56A (antibody, V domains shown)
VH: B3 VH with A52D, D56A
VL: B3 VL
B8: hGPN18-2_H2L3 VH D57A (antibody, V domains shown)
VH: B3 VH with A52D, D57A
VL: B3 VL
B9: hGPN18-2_H2L3 VH F27A (antibody, V domains shown)
VH: B3 VH with F27A, A52D
VL: B3 VL
B10: hGPN06-1_H1L1 VL I29A (antibody, V domains shown)
VH: B1 VH with A27Y
VL: B1 VL with I29A
B11: hGPN06-1_H1L1 VL N91A (antibody, V domains shown)
VH: B1 VH with A27Y
VL: B1 VL with N91A
B12: hGPN06-1_H1L1 VL S28A (antibody, V domains shown)
VH: B1 VH with A27Y
VL: B1 VL with S28A
B13: hGPN06-1_H1L1 VL Q89A (antibody, V domains shown)
VH: B1 VH with A27Y
VL: B1 VL with Q89A
B14: hGPN06-1_H1L1 VL P94A (antibody, V domains shown)
VH: B1 VH with A27Y
VL: B1 VL with P94A
B15: hGPN06-1_H1L1 VL S51A (antibody, V domains shown)
VH: B1 VH with A27Y
VL: B1 VL with S51A
B16: hGPN06-1_H1L1 VL S26A (antibody, V domains shown)
VH: B1 VH with A27Y
VL: B1 VL with S26A
B17: hGPN06-1_H1L1 VL N52A (antibody, V domains shown)
VH: B1 VH with A27Y
VL: B1 VL with N52A
B18: hGPN06-1_H1L1 VL H88A (antibody, V domains shown)
VH: B1 VH with A27Y
VL: B1 VL with H88A
B19: hGPN06-1_H1L1 VL M32A (antibody, V domains shown)
VH: B1 VH with A27Y
VL: B1 VL with M32A
B20: hGPN06-1_H1L1 VL T96A (antibody, V domains shown)
VH: B1 VH with A27Y
VL: B1 VL with T96A
B21: hGPN06-1_H1L1 VL S27A (antibody, V domains shown)
VH: B1 VH with A27Y
VL: B1 VL with S27A
B22: hGPN06-1_H1L1 VL S92A (antibody, V domains shown)
VH: B1 VH with A27Y
VL: B1 VL with S92A
B23: hGPN06-1_H1L1 VL S55A (antibody, V domains shown)
VH: B1 VH with A27Y
VL: B1 VL with S55A
B24: hGPN06-1_H1L1 VL S49A (antibody, V domains shown)
VH: B1 VH with A27Y
VL: B1 VL with S49A
B25: hGPN06-1_H1L1 VL S24A (antibody, V domains shown)
VH: B1 VH with A27Y
VL: B1 VL with S24A
B26: hGPN06-1_H1L1 VL T50A (antibody, V domains shown)
VH: B1 VH with A27Y
VL: B1 VL with T50A
B27: hGPN06-1_H1L1 VL H33A (antibody, V domains shown)
VH: B1 VH with A27Y
VL: B1 VL with H33A
B28: hGPN06-1_H1L1 VL W90A (antibody, V domains shown)
VH: B1 VH with A27Y
VL: B1 VL with W90A
B29: hGPN06-1_H1L1 VL S30A (antibody, V domains shown)
VH: B1 VH with A27Y
VL: B1 VL with S30A
B30: hGPN06-1_H1L1 VL C95A (antibody, V domains shown)
VH: B1 VH with A27Y
VL: B1 VL with C95A
B31: hGPN06-1_H1L1 VL L53A (antibody, V domains shown)
VH: B1 VH with A27Y
VL: B1 VL with L53A

Where a chain is given by its changes, count along the chain named. Numbers in names are those of the source.

For one assay, the target named is T1, recombinant human soluble gpNMB …. As to the kind of experiment: antigen ELISA. For orientation: An ELISA detects its analyte on a solid surface through an enzyme-linked reagent.
As to B1, the EC50 – broadly, the midpoint of the concentration-response curve – turned out to be 69.9 nM.
B2: the EC50 turned out to be 128 nM.

A further assay has the same target. Description: antigen ELISA. This is another data set of the same source.
On to B3, for which the EC50 was found to be 100 nM.
Same read-out and setting: to B4 belongs 3.13 nM.
Regarding B5, the EC50 was 10.2 nM.
For B6, the EC50 worked out at 3.92 nM.
The same measure, in the same setting: as for B7, the figure is 8.98 nM; as for B8, 5.61 nM.
Regarding B9, the EC50 worked out at 5.47 nM.

Another assay has the same target. As to the kind of experiment: antigen ELISA, vs hGPN06-1_H1L1.
With B10, the Relative binding activity turned out to be 0.27.
Same read-out and setting: to B11 belongs 0.58.
As for B12, the Relative binding activity was found to be 1.18.
Still for that read-out and setting: as for B13, the figure is 0.06; as for B14, 0.05; as for B15, 0.82.
Still for that read-out and setting: to B16 belongs 0.75.
On the same count and under the same terms, to B17 belongs 0.74; to B18, 0.08; to B19, 0.65.
Take B20: the Relative binding activity came out at 0.83.
On the same count and under the same terms, to B21 belongs 0.99.
Take B22: the Relative binding activity is 0.19.
On the same count and under the same terms, to B23 belongs 1; to B24, 0.79.
Still for that read-out and setting: to B25 belongs 0.98; to B26, 0.3.
On the same count and under the same terms, as for B27, the figure is 0.28.
For B28, the Relative binding activity worked out at 0.13.
As to B29, the Relative binding activity was 0.58.
On the same count and under the same terms, to B30 belongs 0.45; to B31, 0.98.

The next assay has the same target. As to the kind of experiment: antigen ELISA, vs hGPN18-2_H2L3.
Regarding B3, the Relative binding activity came to 0.05.
For the molecule B4, the Relative binding activity was found to be 0.98.
B5: the Relative binding activity worked out at 0.5.
As for B6, the Relative binding activity came out at 0.84.
The same measure, in the same setting: to B7 belongs 0.63; to B8, 0.86; to B9, 0.69.

The target is the same in another assay. As to the kind of experiment: antigen ELISA, vs hGPN06-1_H1L1. This is another data set of the same source.
For the molecule B1, the Relative binding activity stood at 0.02.
Still for that read-out and setting: as for B2, the figure is 0.04.

A further assay shares this target. Description: antigen ELISA. The source holds these as a separate data set.
As for B10, the EC50 was 23 nM.
Same read-out and setting: to B11 belongs 1.84 nM; to B12, 1.27 nM; to B13, 27.5 nM.
On the same count and under the same terms, to B14 belongs 26.4 nM; to B15, 0.927 nM; to B16, 1.09 nM.
On to B17, for which the EC50 was determined as 0.85 nM.
As to B18, the EC50 turned out to be 147 nM.
Still for that read-out and setting: as for B19, the figure is 6.4 nM.
On the same count and under the same terms, as for B20, the figure is 1.03 nM.
On the same count and under the same terms, to B21 belongs 1.56 nM; to B22, 1.86 nM; to B23, 0.603 nM.
As to B24, the EC50 turned out to be 0.7 nM.
On to B25, for which the EC50 was determined as 1.99 nM.
On the same count and under the same terms, as for B26, the figure is 3.19 nM.
On the same count and under the same terms, to B27 belongs 42.9 nM.
Turning to B28, the EC50 is 122 nM.
As for B29, the EC50 stood at 8.63 nM.
On to B30, for which the EC50 was found to be 3.15 nM.
On the same count and under the same terms, to B31 belongs 0.564 nM.
